Molecular target: PLCg2 (UniProt P16885)
Assay: anti-PLCg2 IP, anti-BANK1 blot
Details: reference: wild type; sites Y484,Y488

BANK1 (from UniProt Q8NDB2) Y484F/Y488F
binding against the reference: weaker

Reference: article PMC3608554
